According to patent US6077680A (The University of Florida, dated 2000):
“And” between values parts separate entries of the source, which are not always exact repeats. Identical values can stand only once. Like-named read-outs stand apart in the source and are kept apart here. Bridges are numbered along the chain shown (N, C = ends). Where no end group is shown, it is not given here.

Legend:
[1] = target: rat brain membrane K channels (delayed rectifier, primarily Kv1.2) (rat) (UniProt P63142)
[2] = target: Kv1.3 potassium channel of human T lymphocytes (human) (UniProt P22001)
Sequence of Kv1.3 potassium channel of human T lymphocytes (human) (P22001 whole entry): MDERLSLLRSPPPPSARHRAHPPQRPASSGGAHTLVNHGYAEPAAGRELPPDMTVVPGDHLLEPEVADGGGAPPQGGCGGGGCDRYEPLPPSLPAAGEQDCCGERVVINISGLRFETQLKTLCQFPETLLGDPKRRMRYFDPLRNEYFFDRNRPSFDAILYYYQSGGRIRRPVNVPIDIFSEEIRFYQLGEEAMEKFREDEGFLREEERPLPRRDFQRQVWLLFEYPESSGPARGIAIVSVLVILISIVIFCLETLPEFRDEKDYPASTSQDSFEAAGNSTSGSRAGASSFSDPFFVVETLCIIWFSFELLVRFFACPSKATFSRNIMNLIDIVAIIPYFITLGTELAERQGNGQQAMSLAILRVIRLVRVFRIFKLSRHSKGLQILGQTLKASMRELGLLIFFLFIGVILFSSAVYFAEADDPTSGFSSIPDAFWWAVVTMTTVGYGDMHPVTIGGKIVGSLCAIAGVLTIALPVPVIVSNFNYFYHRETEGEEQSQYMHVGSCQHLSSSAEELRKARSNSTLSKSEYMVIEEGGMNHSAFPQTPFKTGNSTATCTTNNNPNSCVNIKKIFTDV

[3] = target: rat brain membrane K channels (delayed rectifier, primarily Kv1.2) (rat) (UniProt P63142); experiment: 125I-DTX displacement, rat brain membranes
[4] = target: rat brain membrane K channels (delayed rectifier, primarily Kv1.2) (rat) (UniProt P63142); remark: listed apart in the source
Kv1.3 = Kv1.3 (Mus musculus, UniProt P16390); experiment: cell-based; assay type: cell-based
Sequence of Kv1.3 (P16390 whole entry): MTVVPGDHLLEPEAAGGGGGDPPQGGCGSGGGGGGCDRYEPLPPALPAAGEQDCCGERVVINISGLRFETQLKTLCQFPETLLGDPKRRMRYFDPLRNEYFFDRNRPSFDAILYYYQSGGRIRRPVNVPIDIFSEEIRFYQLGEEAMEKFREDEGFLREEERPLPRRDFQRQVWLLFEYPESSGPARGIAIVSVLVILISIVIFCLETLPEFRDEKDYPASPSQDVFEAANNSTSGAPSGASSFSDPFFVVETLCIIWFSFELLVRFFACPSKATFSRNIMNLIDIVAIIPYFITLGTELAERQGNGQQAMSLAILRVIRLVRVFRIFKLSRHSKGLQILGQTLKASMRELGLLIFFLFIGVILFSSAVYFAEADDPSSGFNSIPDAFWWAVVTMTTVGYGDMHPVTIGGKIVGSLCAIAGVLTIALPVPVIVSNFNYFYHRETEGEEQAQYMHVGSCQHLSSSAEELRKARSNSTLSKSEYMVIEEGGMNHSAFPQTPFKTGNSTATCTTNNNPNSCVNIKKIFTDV

[5] = target: rat brain membrane K channels (delayed rectifier, primarily Kv1.2) (rat) (UniProt P63142); remark: listed apart in the source
[6] = target: cloned Kv1.3 channel, wild type
[7] = target: rat brain membrane K channels (delayed rectifier, primarily Kv1.2) (rat) (UniProt P63142); remark: listed apart in the source
[8] = target: cloned Kv1.3 channel, wild type; remark: listed apart in the source
[9] = target: cloned Kv1.3 channel, wild type; remark: listed apart in the source
cloned Kv1.2 channel [10] = target: cloned Kv1.2 channel
[11] = target: cloned Kv1.3 channel, wild type; remark: listed apart in the source
[12] = target: IKCa channel of activated human T-cells (human) (UniProt O15554); experiment: whole-cell patch clamp block, activated human T-cells; called Kd in paragraph 470
[13] = target: rat brain membrane K channels (delayed rectifier, primarily Kv1.2) (rat) (UniProt P63142); experiment: IC50 ratio on brain delayed rectifier K channels (table title); assay not given
[14] = target: cloned Kv1.3 channel, wild type; experiment: patch clamp block of Kv1.3
[15] = target: cloned Kv1.3 channel, wild type; remark: listed apart in the source
cloned Kv1.2 channel [16] = target: cloned Kv1.2 channel; remark: listed apart in the source
cloned Kv3.1 channel [17] = experiment: patch clamp block of cloned channel
cloned Kv1.5 channel [18] = experiment: patch clamp block of cloned channel
[19] = target: cloned Kv1.3 channel, wild type; experiment: block of cloned channel
cloned Kv1.1 channel [20] = experiment: block of cloned channel
[21] = target: Kv1.3 channel printed as G30; experiment: electrophysiological block of current; Kd from fraction of unblocked current
Kv1.3 H404L = experiment: as above
Kv1.3 H404Y = experiment: as above
Kv1.3 H404T = experiment: as above
Kv1.3 G380E = experiment: as above
Kv1.3 D386N = experiment: as above
Kv1.3 D386K = experiment: as above
[22] = target: rat brain membrane K channels (delayed rectifier, primarily Kv1.2) (rat) (UniProt P63142); remark: listed apart in the source
[23] = target: rat brain membrane K channels (delayed rectifier, primarily Kv1.2) (rat) (UniProt P63142); experiment: radioligand displacement, rat brain membranes
[24] = target: IKCa channel of activated human T-cells (human) (UniProt O15554); experiment: whole-cell patch clamp block, activated human T-cells
[25] = tested on: rat brain membrane K channels (primarily Kv1.2); assay type: binding
[26] = target: Kv1.3 potassium channels in Jurkat T lymphocytes (Homo sapiens, UniProt P22001); assay type: cell-based
Sequence of Kv1.3 potassium channels in Jurkat T lymphocytes (P22001 whole entry): as the sequence (P22001 whole entry) above

[27] = target: small conductance calcium-activated potassium channel in T-cells; experiment: block of channel in T-cells
[28] = target: cloned Kv1.3 channel, wild type; remark: listed apart in the source
cloned Kv1.1 channel [29] = target: cloned Kv1.1 channel
cloned Kv1.1 channel [30] = target: cloned Kv1.1 channel; remark: listed apart in the source
cloned Kv3.1 channel [31] = experiment: whole-cell patch clamp block, cell line stably expressing the channel
[32] = target: cloned Kv1.3 channel, wild type; experiment: as above
cloned Kv1.5 channel [33] = experiment: as above
cloned Kv1.1 channel [34] = experiment: as above
cloned Kv1.2 channel [35] = experiment: as above
cloned Kv1.2 channel [36] = experiment: block of cloned channel
[37] = target: cloned Kv1.3 channel, wild type; remark: listed apart in the source
cloned Kv1.1 channel [38] = target: cloned Kv1.1 channel; remark: listed apart in the source
[39] = target: T1, rat brain membrane K channels (delayed rectifier, primarily Kv1.2) (rat, UniProt P63142)
[40] = target: T2, Kv1.3 potassium channel of human T lymphocytes (human, UniProt P22001); experiment: 125I-ChTX displacement, Jurkat T lymphocytes
[41] = target: T2, Kv1.3 potassium channel of human T …; experiment: 125I-ChTX displacement, Jurkat T lymphocytes; remark: listed apart in the source
[42] = target: rat brain membrane K channels (delayed rectifier, primarily Kv1.2) (rat) (UniProt P63142); experiment: 125I-dendrotoxin displacement assay
[43] = target: T1, rat brain membrane K channels (delayed …); experiment: 125I-DTX displacement, rat brain membranes
[44] = target: T1, rat brain membrane K channels (delayed …); experiment: IC50 ratio on brain delayed rectifier K channels (table title); assay not given

Sequence of rat brain membrane K channels (delayed rectifier, primarily Kv1.2) (rat) (P63142 whole entry): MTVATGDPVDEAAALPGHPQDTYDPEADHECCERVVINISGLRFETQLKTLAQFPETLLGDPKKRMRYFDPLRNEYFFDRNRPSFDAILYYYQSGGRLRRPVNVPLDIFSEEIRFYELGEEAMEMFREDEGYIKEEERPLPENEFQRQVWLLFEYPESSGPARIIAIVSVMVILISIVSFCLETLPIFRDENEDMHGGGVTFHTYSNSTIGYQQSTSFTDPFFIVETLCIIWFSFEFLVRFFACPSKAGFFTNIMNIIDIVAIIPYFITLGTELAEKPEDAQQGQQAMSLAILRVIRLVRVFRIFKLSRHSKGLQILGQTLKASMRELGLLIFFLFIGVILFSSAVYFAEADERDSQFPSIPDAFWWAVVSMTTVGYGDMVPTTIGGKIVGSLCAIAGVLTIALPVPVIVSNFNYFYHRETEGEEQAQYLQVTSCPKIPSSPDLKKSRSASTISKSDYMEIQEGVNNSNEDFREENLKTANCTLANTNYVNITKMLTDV

ShK K9E (analog 104) (peptide)
IC50 ratio (analog IC50/ShK IC50) [1]: 3.57

ShK R1S (peptide)
equipotent molar ratio (analog IC50/ShK IC50) for block of Kv1.3 current [2]: 0.92
IC50 ratio (analog IC50/ShK IC50) [3]: 1.5
IC50 [4]: 16 nM

ShK K9Q (peptide)
equipotent molar ratio (analog IC50/ShK IC50) for block of Kv1.3 current [2]: 9.6
IC50 ratio (analog IC50/ShK IC50) [3]: 0.6
IC50 [4]: 11 nM

CC[C@H](C)[C@@H]1NC(=O)[C@@H](NC(=O)[C@H](CO)NC(=O)[C@@H](N)CCCNC(=N)N)CSSC[C@@H](C(=O)O)NC(=O)[C@H]([C@@H](C)O)NC(=O)CNC(=O)[C@@H]2CSSC[C@@H]3NC(=O)[C@H](CCC(N)=O)NC(=O)[C@H](Cc4ccccc4)NC(=O)[C@H](C)NC(=O)[C@H]([C@@H](C)O)NC(=O)[C@H](CSSC[C@H](NC(=O)[C@H](Cc4ccccc4)NC(=O)[C@H](CO)NC(=O)[C@H](CC(C)C)NC(=O)[C@H](CCCNC(=N)N)NC(=O)[C@H](Cc4ccc(O)cc4)NC(=O)[C@H](CCCCNC(N)=O)NC(=O)[C@H](CCSC)NC(=O)[C@H](CO)NC(=O)[C@H](Cc4c[nH]cn4)NC(=O)[C@H](CCCCN)NC3=O)C(=O)N[C@@H](CCCNC(=N)N)C(=O)N[C@@H](CCCCN)C(=O)N[C@@H]([C@@H](C)O)C(=O)N2)NC(=O)[C@H](CCCNC(=N)N)NC(=O)[C@H](CO)NC(=O)[C@H](CCCCN)NC(=O)[C@@H]2CCCN2C(=O)[C@H]([C@@H](C)CC)NC(=O)[C@H]([C@@H](C)O)NC(=O)[C@H](CC(=O)O)NC1=O [K22Homocit]
Kd (Kv1.3; read-out: Kd): > 100 nM

ShK F27Cha (peptide)
IC50 ratio (analog IC50/ShK IC50) [5]: 0.7
free energy difference of binding [5]: -0.21 kcal/mol
IC50 ratio (analog IC50/ShK IC50) [3]: 0.7
free energy difference of binding [3]: -0.21 kcal/mol

ShK toxin (synthetic, wild type) (peptide)
Kd [6]: 0.1 nM
free energy difference of binding [7]: 0 kcal/mol
Kd [8]: 0.7 nM
block of Kv1.3 current, whole-cell patch clamp (IC50) [9]: 0.012 nM
block of Kv1.2 current, whole-cell patch clamp (cloned Kv1.2 channel [10]): 100 fold
Kd [11]: 0.6 nM and 0.3 nM
Kd [12]: 28 nM
free energy difference of binding [13]: 0 kcal/mol
Kd [14]: 0.011 nM
Kd [15]: 0.012 nM
Kd (cloned Kv1.2 channel [16]): 9 nM
Kd (cloned Kv3.1 channel [17]): > 1000 nM
Kd (cloned Kv1.5 channel [18]): > 1000 nM
Kd [19]: 0.01 nM
Kd (cloned Kv1.1 channel [20]): 0.01 nM
IC50 [4]: 8 nM
Kd [21]: 0.6 nM
Kd (Kv1.3 H404L): 3.2 nM
Kd (Kv1.3 H404Y): 4 nM
Kd (Kv1.3 H404T): 0.3 nM
Kd (Kv1.3 G380E): 0.6 nM
Kd (Kv1.3 D386N): 0.4 nM
Kd (Kv1.3 D386K): 1.8 nM

ShK K22Orn (peptide)
IC50 ratio (analog IC50/ShK IC50) [22]: 1.2
free energy difference of binding [22]: 0.11 kcal/mol
Kd [8]: 2 nM
equipotent molar ratio (analog IC50/ShK IC50) for block of Kv1.3 current [2]: 1.2
reduction of apparent affinity [23]: 120%
IC50 ratio (analog IC50/ShK IC50) [3]: 1.7
IC50 [4]: 20 nM

ShK-K22DAP (peptide; other documents disagree on this pair)
Kd [24]: > 100 nM

ShK K22Nle (peptide)
IC50 ratio (analog IC50/ShK IC50) [22]: > 250
free energy difference of binding [22]: > 3.23 kcal/mol
equipotent molar ratio (analog IC50/ShK IC50) for block of Kv1.3 current [2]: > 23
IC50 ratio (analog IC50/ShK IC50) [3]: > 250

ShK desR1-S2 (peptide)
IC50 ratio (analog IC50/ShK IC50) [5]: 2.54
free energy difference of binding [5]: 0.54 kcal/mol
IC50 ratio (analog IC50/ShK IC50) [3]: 2.5
free energy difference of binding [3]: 0.54 kcal/mol

ShK M21Nle (peptide)
equipotent molar ratio (analog IC50/ShK IC50) for block of Kv1.3 current [2]: 0.8
IC50 ratio (analog IC50/ShK IC50) [3]: 0.8
IC50 [4]: 9 nM

CC[C@H](C)[C@@H]1NC(=O)[C@@H](NC(=O)[C@H](CO)NC(=O)[C@@H](N)CCCNC(=N)N)CSSC[C@@H](C(=O)O)NC(=O)[C@H]([C@@H](C)O)NC(=O)CNC(=O)[C@@H]2CSSC[C@@H]3NC(=O)[C@H](CCC(N)=O)NC(=O)[C@H](Cc4ccccc4)NC(=O)[C@H](C)NC(=O)[C@H]([C@@H](C)O)NC(=O)[C@H](CSSC[C@H](NC(=O)[C@H](Cc4ccccc4)NC(=O)[C@H](CO)NC(=O)[C@H](CC(C)C)NC(=O)[C@H](CCCNC(=N)N)NC(=O)[C@H](Cc4ccc(O)cc4)NC(=O)[C@H](CCCN)NC(=O)[C@H](CCSC)NC(=O)[C@H](CO)NC(=O)[C@H](Cc4c[nH]cn4)NC(=O)[C@H](CCCCN)NC3=O)C(=O)N[C@@H](CCCNC(=N)N)C(=O)N[C@@H](CCCCN)C(=O)N[C@@H]([C@@H](C)O)C(=O)N2)NC(=O)[C@H](CCCNC(=N)N)NC(=O)[C@H](CO)NC(=O)[C@H](CCCCN)NC(=O)[C@@H]2CCCN2C(=O)[C@H]([C@@H](C)CC)NC(=O)[C@H]([C@@H](C)O)NC(=O)[C@H](CC(=O)O)NC1=O [K22Orn]
Equipotent Molar Ration (Analog IC50 /ShK IC50) Rat brain [25]: 1.7
IC50 Ratio [25]: 1.2
binding affinity for rat brain K channels relative to wild-type ShK toxin, in words [25]: little effect
reduction of apparent affinity [25]: about 120%
ΔF [25]: 0.11
IC50 ([25]; read-out: IC50 Rat Brain 125I-CTX): 20 nM
Equipotent Molar Ration (Analog IC50 /ShK IC50) Lymphocyte [26]: 1.2
reduction of affinity (IC50) for Kv1.3 relative to ShK toxin [26]: only slightly reduced (two times)
Kd (Kv1.3): 2 ± 1 nM

ShK-K22DAP (peptide)
Kd [27]: 10 nM
free energy difference of binding [22]: 2.23 kcal/mol
half-blocking dose for Kv1.3 [28]: 28 pM
loss of potency against Kv1.1 (cloned Kv1.1 channel [29]): > 100 fold
potency on Kv1.1 against its potency on Kv1.3 (cloned Kv1.1 channel [30]): 40 fold
Kd (cloned Kv3.1 channel [31]): > 100 nM
Kd [32]: 0.023 nM
Kd (cloned Kv1.5 channel [33]): > 100 nM
Kd (cloned Kv1.1 channel [34]): 3 nM
Kd (cloned Kv1.2 channel [35]): 39 nM
Kd (cloned Kv1.2 channel [36]): 5 nM
block of Kv1.3 current, whole-cell patch clamp (IC50) [37]: 0.03 nM
block of Kv1.1 current, whole-cell patch clamp (cloned Kv1.1 channel [38]): 30 fold

ShK A15 + A25 (peptide)
IC50 ratio (analog IC50/ShK IC50) [7]: 2.1
free energy difference of binding [7]: 0.43 kcal/mol
IC50 ratio (analog IC50/ShK IC50) [3]: 2.1
free energy difference of binding [3]: 0.43 kcal/mol

RSCIDTIPKSRCTKFQCDHSMKYRLSFCRKTCGTC (lactam 14-18; ends not checked) [ShK analog 106, Lactam Bridge (K14 -D18)]
IC50 ratio (analog IC50/ShK IC50) [39]: 1.63 ratio

RSCIDTIPQSRCTAFQCKHSMKYRLSFCRKTCGTC [ShK K9Q]
IC50 [40]: 0.31 nM

RSCIDTIPKSRCTAFQCKHSMKYRLSFCRKTCGTC [ShK toxin (synthetic, wild type)]
IC50 [40]: 0.04 nM
IC50 [41]: 0.032 nM

SSCIDTIPKSRCTAFQCKHSMKYRLSFCRKTCGTC [ShK R1S]
IC50 [40]: 0.05 nM

KSRCTAFQCKHSXKYRLSFCRKTC (norleucine at position 21; Cys12 and Cys28 S-acetamidomethyl (Acm)) [monocyclic truncated ShK analog of Example 14 (Cys17-Cys32)]
IC50 ratio (analog IC50/ShK IC50) [42]: > 3000

Ac-RSCIDTIPKSRCTAFQCKHSMKYRLSFCRKTCGTC (ends and bridges not checked) [N-alpha-acetyl ShK toxin]
IC50 ratio (analog IC50/ShK IC50) [43]: 1 ratio
IC50 ratio (analog IC50/ShK IC50) [44]: 1 ratio

KSRCTAFQCKHSXKYRLSFCRKTC (norleucine at position 21) [bicyclic truncated ShK analog of Example 14 (Cys12-Cys28, Cys17-Cys32)]
IC50 ratio (analog IC50/ShK IC50) [42]: 1360
